The source of these data is US20220168434A1, “APPLICATION OF TRANSTHYRETIN IN ENTERING EYE AND PREPARING DROP” (YIZHOU (SHANGHAI) BIOLOGICAL MEDICINE CO, LTD., priority 2019, published 2022).

Data set [1] can be described thus: Protein content in vitreous body during two weeks of eye dropping (ELISA, anti-His tag antibody). The class given is in vivo, SD rats (Rattus norregicus). Conditions: SD rats; protein not fused with TTR. Here is the method: (§1) The purified TTR protein (at a concentration of 4 μmol/L) prepared in Example 1 after removal of endotoxin and bacteria was subject to treating healthy SD rats (Rattus norregicus) (6 weeks old) and New Zealand big-eared rabbits (Oryctolagus cuniculus) (2 months old, about 2.5 kg) by means of eye dropping, the left eye was the sample eye dropped with the protein, and the right eye was the blank control eye dropped with saline. The protein was administered 1-3 times per day at a dosage of 0.4-0.8 nmol. Two weeks later, the eyeball was removed and separated to obtain the vitreous body sample. It was preliminarily verified by western-blot method (FIG. 7A) that TTR can enter the vitreous cavity from the ocular surface.
(§2) The purified TTR-GFP protein (at a concentration of 4 μmol/L) prepared in Example 2 after removal of endotoxin and bacteria was subject to treating healthy SD rats (Rattus norregicus) (6 weeks old) and New Zealand big-eared rabbits (Oryctolagus cuniculus) (2 months old, about 2.5 kg) by means of eye dropping, the left eye was the sample eye dropped with the protein, and the right eye was the blank control eye dropped with saline. The protein was administered 1-3 times per day at a dosage of 0.4-0.8 nmol. […] The content of TTR-GFP in the vitreous body sample was determined by ELISA with the anti-His tag antibody as the primary antibody (Table 10 and 11). […]

Experiment in data set [2]: as above
The class given is in vivo, New Zealand big-eared rabbits (Oryctolagus cuniculus). The conditions noted are these: New Zealand big-ear rabbits; protein not fused with TTR. How it is done:
as §1, §2

B1: Ovalbumin: Ovalbumin protein (UniProt Accession No.: P01012) not fused with TTR (protein, UniProt P01012 2-386, looked up)
Ovalbumin: GSIGAASMEFCFDVFKELKVHHANENIFYCPIAIMSALAMVYLGAKDSTRTQINKVVRFDKLPGFGDSIEAQCGTSVNVHSSLRDILNQITKPNDVYSFSLASRLYAEERYPILPEYLQCVKELYRGGLEPINFQTAADQARELINSWVESQTNGIIRNVLQPSSVDSQTAMVLVNAIVFKGLWEKAFKDEDTQAMPFRVTEQESKPVQMMYQIGLFRVASMASEKMKILELPFASGTMSMLVLLPDEVSGLEQLESIINFEKLTEWTSSNVMEERKIKVYLPRMKMEEKYNLTSVLMAMGITDVFSSSANLSGISSAESLKISQAVHAAHAEINEAGREVVGSAEAGVDAASVSEEFRADHPFLFCIKHIATNAVLFFGRCVSP
In the case of B1, the “entering the vitreous body after eye dropping (in words)” value in data set [1] and in data set [2] was “did not enter” each time.
